Holding throughout (assay): EC50 of free RNA motif oligo competing protein binding to immobilised probe
The target in one series is ZCCHC24 (UniProt Q8N2G6). The essentials: (§1)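 HEK293-FT lysate (2.5 mg protein/well) was pre-incubated 1 h at 4°C with free RNA oligos (0 nM to 30 μM), then 30 min at 4°C with the same 5′-amino-C6 oligos coupled to NHS-Sepharose beads. Bound proteins were quantified by label-free LC-MS/MS in three biological replicates and two independent experiments, and normalised to the water control. EC50 came from a four-parameter log-logistic fit; Kd is EC50 times a protein-dependent depletion factor.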

For another series, the target named is T1, LSM4 (UniProt Q9Y4Z0).
T1 sequence: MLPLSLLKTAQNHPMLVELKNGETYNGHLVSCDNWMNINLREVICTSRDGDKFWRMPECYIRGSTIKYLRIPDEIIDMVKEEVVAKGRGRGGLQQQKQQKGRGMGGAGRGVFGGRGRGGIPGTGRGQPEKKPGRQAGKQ
In outline: as §1

The target of another series is ELAVL1 (UniProt Q15717). In outline:
as §1

The next series concerns the target T2, RBMS1 (UniProt P29558).
T2 sequence: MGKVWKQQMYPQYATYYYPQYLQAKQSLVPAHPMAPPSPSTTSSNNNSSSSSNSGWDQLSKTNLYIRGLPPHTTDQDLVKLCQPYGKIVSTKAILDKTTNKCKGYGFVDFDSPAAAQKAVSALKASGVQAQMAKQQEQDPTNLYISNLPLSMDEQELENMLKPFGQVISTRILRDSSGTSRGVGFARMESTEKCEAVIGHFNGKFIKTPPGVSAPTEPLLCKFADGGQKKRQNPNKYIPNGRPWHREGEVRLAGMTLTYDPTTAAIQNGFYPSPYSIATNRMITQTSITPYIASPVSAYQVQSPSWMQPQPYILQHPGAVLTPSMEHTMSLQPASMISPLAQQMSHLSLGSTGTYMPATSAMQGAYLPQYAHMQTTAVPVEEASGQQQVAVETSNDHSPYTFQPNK
In outline: as §1

The target in another series is T3, LSM2 (UniProt Q9Y333).
T3 sequence: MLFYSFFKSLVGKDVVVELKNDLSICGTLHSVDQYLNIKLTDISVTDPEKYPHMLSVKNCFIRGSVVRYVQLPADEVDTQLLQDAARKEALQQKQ
The essentials: as §1

A further series has as its target MSI2 (UniProt Q96DH6). In outline:
as §1

The target of the next series is T4, ZFP36L2 (UniProt P47974).
T4 sequence: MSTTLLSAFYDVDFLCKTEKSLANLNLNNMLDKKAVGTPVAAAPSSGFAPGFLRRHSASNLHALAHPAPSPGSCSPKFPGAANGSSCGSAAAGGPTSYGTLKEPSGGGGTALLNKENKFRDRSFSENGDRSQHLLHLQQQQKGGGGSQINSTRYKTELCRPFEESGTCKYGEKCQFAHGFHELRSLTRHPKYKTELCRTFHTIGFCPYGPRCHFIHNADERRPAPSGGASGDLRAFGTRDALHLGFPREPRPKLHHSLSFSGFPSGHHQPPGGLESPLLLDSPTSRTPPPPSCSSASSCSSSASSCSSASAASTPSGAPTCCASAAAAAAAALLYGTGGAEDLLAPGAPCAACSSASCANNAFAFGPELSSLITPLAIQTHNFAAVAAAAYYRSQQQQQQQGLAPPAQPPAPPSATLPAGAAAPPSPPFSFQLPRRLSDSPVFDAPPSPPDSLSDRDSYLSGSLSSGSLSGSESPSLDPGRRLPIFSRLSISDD
In outline:
as §1

For another series, the target named is T5, CSTF1 (UniProt Q05048).
T5 sequence: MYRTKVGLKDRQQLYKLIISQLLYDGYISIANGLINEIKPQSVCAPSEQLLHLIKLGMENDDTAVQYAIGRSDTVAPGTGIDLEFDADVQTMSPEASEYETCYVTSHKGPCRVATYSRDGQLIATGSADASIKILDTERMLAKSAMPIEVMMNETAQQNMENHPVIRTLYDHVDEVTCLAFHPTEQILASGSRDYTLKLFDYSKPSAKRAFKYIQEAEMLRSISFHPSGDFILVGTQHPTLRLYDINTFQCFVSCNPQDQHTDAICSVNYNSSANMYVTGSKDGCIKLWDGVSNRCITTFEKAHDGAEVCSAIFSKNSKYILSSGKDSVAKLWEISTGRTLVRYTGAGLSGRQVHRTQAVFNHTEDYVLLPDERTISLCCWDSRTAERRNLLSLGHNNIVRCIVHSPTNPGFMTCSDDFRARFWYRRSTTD
The essentials:
as §1

A further series concerns the target T6, ZNF830 (UniProt Q96NB3).
T6 sequence: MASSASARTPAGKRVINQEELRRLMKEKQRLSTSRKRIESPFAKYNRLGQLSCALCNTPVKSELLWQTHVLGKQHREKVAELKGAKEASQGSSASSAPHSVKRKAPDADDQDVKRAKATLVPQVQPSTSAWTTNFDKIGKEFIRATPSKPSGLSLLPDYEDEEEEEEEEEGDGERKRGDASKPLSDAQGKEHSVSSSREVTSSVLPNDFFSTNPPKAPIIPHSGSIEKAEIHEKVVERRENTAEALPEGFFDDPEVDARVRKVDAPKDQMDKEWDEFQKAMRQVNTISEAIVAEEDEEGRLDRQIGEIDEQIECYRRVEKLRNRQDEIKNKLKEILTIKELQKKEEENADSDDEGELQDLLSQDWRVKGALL
The essentials:
as §1

The next series concerns the target SRSF9 (UniProt Q13242). In outline:
as §1

A further series addresses NCL (UniProt P19338). The essentials: as §1

Sequence of ELAVL1 (Q15717 whole entry): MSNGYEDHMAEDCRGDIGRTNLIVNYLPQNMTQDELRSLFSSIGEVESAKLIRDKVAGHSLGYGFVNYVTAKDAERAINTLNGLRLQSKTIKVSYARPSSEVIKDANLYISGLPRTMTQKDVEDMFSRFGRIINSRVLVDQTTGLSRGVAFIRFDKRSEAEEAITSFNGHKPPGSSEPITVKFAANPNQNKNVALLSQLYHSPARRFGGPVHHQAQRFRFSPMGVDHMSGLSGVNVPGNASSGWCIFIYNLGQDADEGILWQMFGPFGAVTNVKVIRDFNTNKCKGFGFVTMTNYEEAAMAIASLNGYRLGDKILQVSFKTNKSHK
Sequence of ZCCHC24 (Q8N2G6 whole entry): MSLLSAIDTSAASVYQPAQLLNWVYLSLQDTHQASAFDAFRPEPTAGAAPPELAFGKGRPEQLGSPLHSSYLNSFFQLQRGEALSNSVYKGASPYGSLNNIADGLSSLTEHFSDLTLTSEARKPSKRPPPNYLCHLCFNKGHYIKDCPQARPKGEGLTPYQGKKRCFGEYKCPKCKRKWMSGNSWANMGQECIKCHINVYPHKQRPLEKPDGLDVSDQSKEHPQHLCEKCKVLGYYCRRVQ
Sequence of MSI2 (Q96DH6 whole entry): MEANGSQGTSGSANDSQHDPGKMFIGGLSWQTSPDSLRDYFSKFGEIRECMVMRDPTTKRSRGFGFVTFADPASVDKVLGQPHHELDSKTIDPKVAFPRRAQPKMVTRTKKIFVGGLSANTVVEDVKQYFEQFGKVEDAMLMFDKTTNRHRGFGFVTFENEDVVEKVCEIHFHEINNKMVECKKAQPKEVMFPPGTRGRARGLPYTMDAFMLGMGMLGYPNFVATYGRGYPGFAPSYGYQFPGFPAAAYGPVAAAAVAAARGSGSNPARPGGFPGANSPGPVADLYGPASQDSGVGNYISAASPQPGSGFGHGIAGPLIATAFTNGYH
Sequence of SRSF9 (Q13242 whole entry): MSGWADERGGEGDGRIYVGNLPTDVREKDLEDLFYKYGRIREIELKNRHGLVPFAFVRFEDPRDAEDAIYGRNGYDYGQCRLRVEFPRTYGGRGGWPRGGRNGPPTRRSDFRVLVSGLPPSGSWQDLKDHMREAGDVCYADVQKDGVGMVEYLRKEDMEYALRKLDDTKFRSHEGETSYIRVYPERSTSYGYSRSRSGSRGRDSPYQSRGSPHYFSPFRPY
Sequence of NCL (P19338 whole entry): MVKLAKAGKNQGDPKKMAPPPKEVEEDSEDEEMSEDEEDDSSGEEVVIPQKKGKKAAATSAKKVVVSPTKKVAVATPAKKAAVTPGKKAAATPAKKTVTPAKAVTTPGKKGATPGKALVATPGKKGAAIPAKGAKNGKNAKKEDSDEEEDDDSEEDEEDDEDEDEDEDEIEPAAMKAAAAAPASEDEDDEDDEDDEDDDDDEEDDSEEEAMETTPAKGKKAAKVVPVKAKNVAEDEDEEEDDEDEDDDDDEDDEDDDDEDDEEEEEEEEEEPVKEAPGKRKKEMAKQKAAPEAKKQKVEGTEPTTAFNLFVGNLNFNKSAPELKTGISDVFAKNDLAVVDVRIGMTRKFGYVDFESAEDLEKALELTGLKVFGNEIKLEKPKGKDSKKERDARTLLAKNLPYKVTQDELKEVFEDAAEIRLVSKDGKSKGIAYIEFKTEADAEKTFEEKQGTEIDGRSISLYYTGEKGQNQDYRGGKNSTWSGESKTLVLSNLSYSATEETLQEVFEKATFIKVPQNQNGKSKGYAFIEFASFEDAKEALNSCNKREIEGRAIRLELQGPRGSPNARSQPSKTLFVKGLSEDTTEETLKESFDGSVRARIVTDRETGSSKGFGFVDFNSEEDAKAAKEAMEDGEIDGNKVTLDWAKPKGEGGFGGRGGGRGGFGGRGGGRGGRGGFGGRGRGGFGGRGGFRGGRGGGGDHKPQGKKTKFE

Regarding AAUAAA, the EC50 (in general, the midpoint of the concentration-response curve) was found to be 545 nM with ZCCHC24; 465 nM with LSM4; 5060 nM with ELAVL1; 1570 nM with RBMS1; 314 nM with LSM2; 826 nM in the series with MSI2. For the same sequence, the figures for the EC50 with ZFP36L2, with CSTF1 and with ZNF830 were 1830 nM, 53.9 nM and 1030 nM, respectively.

On to CUGUCCU, for which the concentration for a half-maximal effect (EC50) turned out to be 4530 nM with SRSF9 and 321 nM in the series with NCL.

On to UAUUUAU, for which the EC50 was 2520 nM with ZCCHC24; 599 nM with LSM4; 8030 nM in the series with SRSF9; 3040 nM in the series with ELAVL1; 458 nM with RBMS1; 2170 nM with NCL. In addition, the EC50 with LSM2 came out at 781 nM; with MSI2, 803 nM; with ZFP36L2, 61.8 nM; with CSTF1, 574 nM; with ZNF830, 378 nM.

Source of the values: the supplement of paper PMC6379048.
